# Bridge positions count the residues as written; N and C are the ends. Peptide text beside a SMILES is read from it.
# Experiments:
# [1] = molecular target: T1, GC-C (Ugn receptor) in T84 cell membranes (Homo sapiens, UniProt P25092); test: Competitive Ugn binding assay (125I-Y-Ugn, T84 cell membranes); conditions: pH 4.5, 1 h at 25°C; for Ki: displacement of 1 nmol/L 125I-Y-Ugn, T84 cell membranes, triplicate, rat Ugn n = 8 (R2 0.9985), rat Gn n = 3 (R2 0.9587), rat proUgn n = 3 (R2 0.9677)
# T1 construct: plasma membranes derived from the T84 cell line, which abundantly expresses GC‐C; endogenous in cells; host or cells: T84 cell membranes
# Description: Urine samples were first dialyzed against deionized H2O, using SpectraPor® 500‐M.W. cutoff dialysis membrane (Spectrum Laboratories Inc., Rancho Domingo, CA), then dried (Savant SpeedVac, Thermo Electron Corporation, Waltham, MA) and re‐dissolved in 100 μL of assay buffer [1 nmol/L ^125I‐Y‐Ugn in NaHCO3–free HBSS supplemented with 20 mmol/L sodium citrate and 0.75% bovine serum albumin (Sigma, St. Louis, Mo, USA)]. The pH was individually adjusted to 4.5 with NaOH or HCl using a miniaturized glass microelectrode (Microelectrodes Inc., Bedford, NH). Prepared samples were incubated in triplicate for 1 h at 25°C in polypropylene tubes with 20 μL of T84 cell membranes (10–20 μg protein). Samples were then diluted in 1 mL of ice‐cold rinse buffer, rapidly filtered through Whatman GF/C glass microfiber filters presoaked in distilled water, and quickly rinsed twice with 5 mL of ice‐cold rinse buffer (50 mmol/L Tris‐HCl at pH 7.0). Bound radioligand (retained by the filter) was quantified with a gamma counter (Packard Cobra, PerkinElmer Life and Analytical Sciences Inc., Waltham, MA). Ugn concentrations in sample solutions were calculated by interpolation in a standard curve obtained from a dilution series of synthetic rat Ugn incubated and analyzed in parallel with the unknowns. Non‐specific binding was determined by including 10^−5 mol/L unlabeled Y‐Ugn in place of Ugn standards or unknowns.
# All data were plotted as mean ± SEM (or, in the case of n = 2, as mean ± range). Paired t‐tests were used for comparison of Ugn excretion, water consumption, and food consumption. GraphPad Prism 5.0 (LaJolla, CA) was used for analysis of binding data, with formulas derived from the Cheng‐Prusoff equation: cpm bound = NSB + [(B max − NSB)/1 + 10∧[log10(competitor concentration) − log10(IC50)]}], where NSB = nonspecific binding (in the presence of saturating competitor) and B max = maximal binding (in the absence of competitor). […]
# Because GC‐C, the Ugn receptor (Schulz et al. 1990), is activated at the apical membranes of the cells that form the renal tubules (White et al. 1989; Hodson et al. 2006; Santos‐Neto et al. 2006), we can evaluate renal Ugn signaling (the presence of Ugn within the tubule lumen) by measuring the rate at which Ugn is excreted in urine (UUgnV). However, the conventional Ugn bioassay, which measures levels of the peptide by quantifying its stimulatory effect on ligand‐activated cGMP synthesis (Carrithers et al. 1999, 2000a), is compromised by high levels of cGMP that are naturally present in urine. […]
# It can quantify Ugn in the picomolar range (Fig. 2A, black circles), allowing us to perform triplicate measurements of Ugn in rat urine samples as small as 20 μL. […]
# [2] = intravascular infusion, rodents; ref none printed in abstract; cited from earlier work
# From the text: Abstract The peptide uroguanylin (Ugn) is expressed at significant levels only in intestine and kidney, and is stored in both tissues primarily (perhaps exclusively) as intact prouroguanylin (proUgn). […] In conjunction with previous studies, this observation critically strengthens the contention that Ugn is an authentic endocrine agent as follows: (1) Ablation of the Ugn gene leads to hypertension (Lorenz et al. 2003; Elitsur et al. 2006), an appropriate phenotype for an animal that lacks an endocrine mechanism involved in electrolyte homeostasis.
# [3] = cited from earlier work
# From the text: To investigate this in a statistically reliable manner, we obtained single plasma samples from a larger number of individual animals at a specific time of day (3 AM) under each dietary condition. […] Recent speculation has focused on proUgn, rather than Ugn, as the endocrine mediator of this putative signaling axis, because (1) proUgn is by far the most abundant molecular species stored in tissues and circulating in plasma (Moss et al. 2008), and (2) when isotopically labeled recombinant p ...
# [4] = Tissue (vascular) ligation studies, plasma proUgn; format: in vivo, rat
# Description: Rats were anesthetized (sodium pentobarbital, 60 mg/kg, ip) and prepared for clearance experiments as previously described (Moss et al. 2010). They received an initial infusion of isotonic saline (6% of body weight), followed by an infusion of 10% mannitol in 0.9% saline at 100 μL/min containing FITC‐labeled inulin (400 μg/mL, Sigma Chemical Co. St Louis, MO). For renal ligations, 5.0 silk thread ligatures were placed loosely around right and left renal arteries, and tightened after baseline data had been collected. For intestinal ligations, the bowels were exteriorized and wrapped in saline‐soaked gauze. […] Blood was sampled every 40 min from the femoral artery.
# ProUgn concentrations in plasma and tissues were measured by quantitative western blotting, as described previously (Moss et al. 2008). Samples were loaded on 4–12% polyacrylamide gels (Invitrogen Corp., Carlsbad, CA), and a standard curve was constructed with known amounts of recombinant rat proUgn (Ironwood Pharmaceuticals, Cambridge, MA). Gels were blotted to nitrocellulose and probed with primary antibody 6910 (Moss et al. 2008; Qian et al. 2008) and an IR dye‐coupled secondary antibody. Imaging and quantification were performed with an Odyssey System (LI‐COR Biosciences, Lincoln, NE). Values were corrected for recovery, as determined in parallel control assays with known amounts of recombinant rat proUgn.
# Previous surveys have identified only two organs (intestine and kidney) that contain levels of proUgn polypeptide sufficient to generate the relatively large circulating pool of proUgn (Moss et al. 2008; Qian et al. 2008). To determine the extent to which each of these organs contributes to the plasma pool, we ligated either the splanchnic or the renal blood supply, and measured the effects of each ligation on circulating proUgn levels. […] For the renal ligations, we also infused each animal with inulin (a reference standard used to assess glomerular filtration rates), and measured plasma inulin at each time point (Fig. 5A, left panel, white symbols). […]
# T1 sequence (P25092 24-1073): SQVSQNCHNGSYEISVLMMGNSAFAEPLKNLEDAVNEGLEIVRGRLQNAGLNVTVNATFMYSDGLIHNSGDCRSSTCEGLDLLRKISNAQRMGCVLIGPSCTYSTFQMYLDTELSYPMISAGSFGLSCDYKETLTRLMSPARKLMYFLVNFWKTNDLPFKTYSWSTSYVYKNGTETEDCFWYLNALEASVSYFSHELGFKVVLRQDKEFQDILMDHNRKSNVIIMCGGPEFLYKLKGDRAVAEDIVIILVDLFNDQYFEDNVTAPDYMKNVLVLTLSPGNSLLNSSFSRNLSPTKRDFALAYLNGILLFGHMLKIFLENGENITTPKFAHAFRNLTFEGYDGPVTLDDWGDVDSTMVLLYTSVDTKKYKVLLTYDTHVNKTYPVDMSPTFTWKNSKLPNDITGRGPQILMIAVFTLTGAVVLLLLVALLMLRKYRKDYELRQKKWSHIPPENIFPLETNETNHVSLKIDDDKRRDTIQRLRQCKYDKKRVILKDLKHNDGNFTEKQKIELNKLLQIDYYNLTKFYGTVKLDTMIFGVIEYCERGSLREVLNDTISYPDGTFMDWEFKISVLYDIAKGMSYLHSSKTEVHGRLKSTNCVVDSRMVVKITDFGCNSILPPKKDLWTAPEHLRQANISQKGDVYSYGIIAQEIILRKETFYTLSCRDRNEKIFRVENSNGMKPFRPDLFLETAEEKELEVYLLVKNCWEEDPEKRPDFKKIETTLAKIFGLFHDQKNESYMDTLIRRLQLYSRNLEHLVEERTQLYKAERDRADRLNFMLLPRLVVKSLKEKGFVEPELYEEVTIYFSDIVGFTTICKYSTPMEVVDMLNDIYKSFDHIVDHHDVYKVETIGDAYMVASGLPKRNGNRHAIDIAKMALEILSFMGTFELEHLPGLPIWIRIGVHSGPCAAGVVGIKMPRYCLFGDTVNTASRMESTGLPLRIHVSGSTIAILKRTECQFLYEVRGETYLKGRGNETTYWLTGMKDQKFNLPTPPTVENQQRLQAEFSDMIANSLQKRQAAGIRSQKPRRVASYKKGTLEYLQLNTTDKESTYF
molecule,measurement,setting,value
"^125I‐Y‐Ugn: N‐tyrosyl rat Ugn (Y‐Ugn, Bachem Inc.) iodinated as previously described; radioligand (YTDECELCINVACTGC; 125I-iodinated on the added N-terminal Tyr; two disulfides (Cys1-Cys3 and Cys2-Cys4 of the uroguanylin peptide, by convention); The 15-residue C-terminal peptide limits are by convention; check residu)",Kd,"[1]; T84 cell membranes (10–20 μg protein), filtration, gamma counter, R2 0.9659, n = 3",1.5 nM
"CC[C@H](C)[C@@H]1NC(=O)[C@H](CCC(=O)O)NC(=O)[C@@H](NC(=O)[C@@H](NC(=O)[C@H](CC(N)=O)NC(=O)[C@@H]2CCCN2)[C@@H](C)O)CSSC[C@@H]2NC(=O)[C@H](C)NC(=O)[C@H](C)NC(=O)[C@H](Cc3ccc(O)cc3)NC(=O)[C@H](C)NC(=O)[C@H](CSSC[C@@H](C(=O)O)NC(=O)CNC(=O)[C@H]([C@@H](C)O)NC2=O)NC1=O [Gn, guanylin] (H-PNTCEICAYAACTGC-OH; disulfide 4-12, 7-15)",Ki,[1],170 nM
"CC[C@H](C)[C@@H]1NC(=O)[C@@H]2CSSC[C@@H](C(=O)O)NC(=O)CNC(=O)[C@H]([C@@H](C)O)NC(=O)[C@H](CSSC[C@H](NC(=O)[C@H](CCC(=O)O)NC(=O)[C@H](CC(=O)O)NC(=O)[C@@H](N)[C@@H](C)O)C(=O)N[C@@H](CCC(=O)O)C(=O)N[C@@H](CC(C)C)C(=O)N2)NC(=O)[C@H](C)NC(=O)[C@H](C(C)C)NC(=O)[C@H](CC(N)=O)NC1=O [Ugn, uroguanylin] (H-TDECELCINVACTGC-OH; disulfide 4-12, 7-15)",Ki,[1],1.04 nM
"prouroguanylin (protein, UniProt P70668 22-106, looked up, pro-form, Recombinant rat proUgn, Ironwood Pharmaceuticals; also endogenous propeptide in plasma) pro-form: VYIKYHGFQVQLESVKKLNELEEKQMSDPQQQKSGLLPDVCYNPALPLDLQPVCASQEAASTFKALRTIATDECELCINVACTGC",Natriuretic response,[2],natriuretic responses in rodents
same,Time for appearance of nearly all recovered Ugn in urine after proUgn,"[3]; intravascular bolus of exogenous proUgn, ref Moss et al. 2010",30 to 60 min
same,Renal filtration and conversion,"[3]; isotopically labeled recombinant proUgn infused intravascularly, ref Qian et al. 2008","readily filtered from plasma by the kidney, and converted within the kidney to Ugn"
same,Plasma proUgn after renal artery ligation,"[4]; endogenous, anesthetized rats, renal artery ligation",rose rapidly
same,Plasma proUgn after splanchnic ligation,"[4]; endogenous, anesthetized rats, splanchnic ligation",fell to barely detectable levels
same,Postligation rate of rise of plasma proUgn relative to inulin,"[4]; renal artery ligation, FITC-inulin infused, percentage basis",nearly identical to that of inulin
same,Ki,[1],8900 nM
